In experiment [1] the target is HPV16 pseudovirions (HPV16-PsVs) (human papillomavirus type 16) (UniProt P03101).
For experiment [2] the target is unchanged. The source holds these as a separate data set.
The target is the same in experiment [3]. This is another data set of the same source.

This is an account of results in publication PMC11277218.

Sequence of UniProt P03101 (P03101 whole entry, chain 1 of 2): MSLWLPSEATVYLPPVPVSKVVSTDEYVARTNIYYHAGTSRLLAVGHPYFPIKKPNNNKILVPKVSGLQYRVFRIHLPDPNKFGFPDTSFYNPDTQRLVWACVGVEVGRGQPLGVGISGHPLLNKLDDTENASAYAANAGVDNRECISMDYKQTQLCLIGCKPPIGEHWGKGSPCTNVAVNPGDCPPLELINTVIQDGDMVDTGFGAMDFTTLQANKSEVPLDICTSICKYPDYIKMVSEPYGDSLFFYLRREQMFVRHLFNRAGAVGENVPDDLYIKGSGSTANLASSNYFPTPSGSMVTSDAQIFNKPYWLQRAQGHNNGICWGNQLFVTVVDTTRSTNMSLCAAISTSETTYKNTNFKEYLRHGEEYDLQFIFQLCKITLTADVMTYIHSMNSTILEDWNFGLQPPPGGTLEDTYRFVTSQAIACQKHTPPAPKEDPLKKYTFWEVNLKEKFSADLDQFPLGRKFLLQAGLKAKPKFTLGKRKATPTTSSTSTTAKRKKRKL
Sequence of UniProt P03101 (P03107 whole entry, chain 2 of 2, further chain): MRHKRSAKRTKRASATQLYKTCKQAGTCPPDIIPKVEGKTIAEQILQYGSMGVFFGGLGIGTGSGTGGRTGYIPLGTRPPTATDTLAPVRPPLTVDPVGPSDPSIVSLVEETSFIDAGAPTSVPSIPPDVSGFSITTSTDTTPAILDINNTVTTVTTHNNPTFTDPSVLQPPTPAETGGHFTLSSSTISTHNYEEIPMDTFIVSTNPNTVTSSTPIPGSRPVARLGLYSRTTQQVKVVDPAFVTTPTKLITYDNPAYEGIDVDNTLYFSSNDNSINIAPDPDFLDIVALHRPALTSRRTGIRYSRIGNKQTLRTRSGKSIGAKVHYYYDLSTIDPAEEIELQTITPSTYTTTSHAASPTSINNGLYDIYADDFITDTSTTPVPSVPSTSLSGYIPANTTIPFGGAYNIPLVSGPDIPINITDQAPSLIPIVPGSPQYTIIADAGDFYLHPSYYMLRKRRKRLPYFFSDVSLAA

As to “native human surfactant protein A (SP-A) (from UniProt Q8IWL2 21-248) (natural protein)”, the uptake of SP-A-preincubated AF488-PsVs into HaCaT keratinocytes, positive cells by flow cytometry, against the BSA control (fold decrease) in experiment [1] turned out to be 2. In experiment [2], this substance yielded an uptake of SP-A-preincubated AF488-PsVs into RAW264.7 macrophages, MFI by flow cytometry, fold of the BSA control of 1.75 fold; an uptake of SP-A-preincubated AF488-PsVs into RAW264.7 macrophages, positive cells by flow cytometry, fold of the BSA control of 2 fold; an uptake of SP-A-preincubated AF488-PsVs into THP-1-derived immature dendritic cells (DC0), positive cells by flow cytometry, fold of the BSA control of 2 fold; an uptake of SP-A-preincubated AF488-PsVs into THP-1 monocytes, MFI by flow cytometry, fold of the BSA control of 1.3 fold. In experiment [3], the infection of HaCaT monocultures by SP-A-preincubated PsVs, Gaussia luciferase at 48 h, against the BSA control is 40 % reduction.
